Blank lines part the entries; values can stand above or below the binder they belong to.
Biological target: yeast microtubules (assembled from tubulin purified from yeast, Tub1/Tub2-6His) (yeast, UniProt P09733 1-447; P02557 1-457)
Test: TIRF microscopy-based microtubule-binding assay

Sequence of yeast microtubules (assembled from tubulin purified from yeast, Tub1/Tub2-6His) (P09733 whole entry, chain 1 of 2): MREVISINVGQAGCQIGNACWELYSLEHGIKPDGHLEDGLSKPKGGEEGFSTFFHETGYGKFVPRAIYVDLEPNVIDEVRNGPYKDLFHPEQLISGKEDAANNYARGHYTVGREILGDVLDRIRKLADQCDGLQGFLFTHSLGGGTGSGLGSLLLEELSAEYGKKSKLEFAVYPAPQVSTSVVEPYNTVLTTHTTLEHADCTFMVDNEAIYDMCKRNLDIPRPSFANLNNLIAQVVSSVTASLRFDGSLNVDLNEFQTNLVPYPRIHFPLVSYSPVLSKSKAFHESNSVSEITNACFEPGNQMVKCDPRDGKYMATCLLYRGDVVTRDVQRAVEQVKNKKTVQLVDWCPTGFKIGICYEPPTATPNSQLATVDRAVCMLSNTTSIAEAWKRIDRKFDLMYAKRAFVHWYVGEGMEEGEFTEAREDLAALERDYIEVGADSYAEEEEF
Sequence of yeast microtubules (assembled from tubulin purified from yeast, Tub1/Tub2-6His) (P02557 whole entry, chain 2 of 2): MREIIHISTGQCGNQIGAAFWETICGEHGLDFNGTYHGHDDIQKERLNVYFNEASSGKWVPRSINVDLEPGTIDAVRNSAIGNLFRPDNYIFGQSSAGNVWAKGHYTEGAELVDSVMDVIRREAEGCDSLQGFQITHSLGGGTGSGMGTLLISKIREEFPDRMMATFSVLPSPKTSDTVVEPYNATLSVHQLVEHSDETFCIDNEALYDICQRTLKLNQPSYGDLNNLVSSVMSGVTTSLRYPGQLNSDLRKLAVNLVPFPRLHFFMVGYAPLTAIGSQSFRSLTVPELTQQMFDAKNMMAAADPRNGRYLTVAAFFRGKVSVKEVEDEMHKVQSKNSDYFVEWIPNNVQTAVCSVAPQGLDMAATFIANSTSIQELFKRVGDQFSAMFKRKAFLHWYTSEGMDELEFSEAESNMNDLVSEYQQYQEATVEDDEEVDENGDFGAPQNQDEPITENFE

Kd: 854 nM
B1: She1-HaloTag^TMR (wild-type She1) (natural protein, budding yeast, UniProt P38200 1-338, looked up)
chain: MNDKLQEEHNEKDTTSQINGFTPPHMSIDFHSNNNSNIIETIGVSKRLGNSVLSELDSRASSKFEFLKDQSEQQYNGDKNNEPKSGSYNINEFFQAKHDSQFGQMESLDTHYTLLHTPKRKSQHAIPQDRSDSMKRSRPSRSIPYTTPVVNDITRRIRRLKLRNSLVNGNDIVARARSMQANSNINSIKNTPLSKPKPFMHKPNFLMPTTNSLNKINSAHRNTSSSSTASSIPRSKVHRSISIRDLHAKTKPVERTPVAQGTNSQLKNSVSVFDRLYKQTTFSRSTSMNNLSSGTSAKSKEHTNVKTRLVKSKTSGSLSSNLKQSTATGTKSDRPIWR
modifications: HaloTag-TMR ligand on the HaloTag

Kd: 806 nM
B2: She1-NLS^SV40-HaloTag (other)
chain: MNDKLQEEHNEKDTTSQINGFTPPHMSIDFHSNNNSNIIETIGVSKRLGNSVLSELDSRASSKFEFLKDQSEQQYNGDKNNEPKSGSYNINEFFQAKHDSQFGQMESLDTHYTLLHTPKRKSQHAIPQDRSDSMKRSRPSRSIPYTTPVVNDITRRIRRLKLRNSLVNGNDIVARARSMQANSNINSIKNTPLSKPKPFMHKPNFLMPTTNSLNKINSAHRNTSSSSTASSIPRSKVHRSISIRDLHAKTKPVERTPVAQGTNSQLKNSVSVFDRLYKQTTFSRSTSMNNLSSGTSAKSKEHTNVKTRLVKSKTSGSLSSNLKQSTATGTKSDRPIWRGSGSAAAPKKKRKVG
modifications: HaloTag-TMR ligand on the HaloTag

Source: doi:10.1101/2021.02.02.429374 (bioRxiv, 2021)
